B1: durvalumab-based anti-hPD-L1 IgG4 antibody C5 (antibody, V domains shown)
VH: EVQLVESGGGLVQPGGSLRLSCAASGFTFSRYWMSWVRQAPGKGLEWVALISRDGSETYYVDSVKGRFTISRDNAKNSLYLQMNSLRAEDTAVYYCAREGGWFGELAFDYWGQGTLVTVSS
VL: IVLTQSPGTLSLSPGERATLSCKASEDIGTWLAWYQQKPGQAPRLLIYDASSRATGIPDRFSGSGSGTDFTLTISRLEPEDFAVYYCQQYGSLPWTFGQGTKVEIK
notes: IgG4 heavy chain; IgG4; recombinant human anti-PD-L1 antibody, previously modeled, durvalumab-based; also called C5 antibody; full C5 antibody; source: produced by Recepton, purified (MabSelect Sure, SEC); copies: 2 + 2
B2: C5M1A, asymmetric knob-into-hole C5 IgG4 with one of the Fabs replaced by M1 (bispecific antibody, V domains shown)
VH: EVQLVESGGGLVQPGGSLRLSCAASGFTFSRYWMSWVRQAPGKGLEWVALISRDGSETYYVDSVKGRFTISRDNAKNSLYLQMNSLRAEDTAVYYCAREGGWFGELAFDYWGQGTLVTVSS
VL: IVLTQSPGTLSLSPGERATLSCKASEDIGTWLAWYQQKPGQAPRLLIYDASSRATGIPDRFSGSGSGTDFTLTISRLEPEDFAVYYCQQYGSLPWTFGQGTKVEIK
notes: it replaces one Fab; human IgG4 constant region, hinge and Fc as in the heavy chain of m7, with knob-into-hole mutations; copies: 1 + 1 + 1
B3: C5M1B, C5 scFv with M1 attached to its C-terminus by a (GGGGS)4 linker (bispecific antibody, V domains shown)
VH: EVQLVESGGGLVQPGGSLRLSCAASGFTFSRYWMSWVRQAPGKGLEWVALISRDGSETYYVDSVKGRFTISRDNAKNSLYLQMNSLRAEDTAVYYCAREGGWFGELAFDYWGQGTLVTVSS
VL: IVLTQSPGTLSLSPGERATLSCKASEDIGTWLAWYQQKPGQAPRLLIYDASSRATGIPDRFSGSGSGTDFTLTISRLEPEDFAVYYCQQYGSLPWTFGQGTKVEIK
notes: linker printed as (GGGGS)4

The test deals with T1, programmed death ligand 1 (PD-L1) (Homo sapiens, UniProt Q9NZQ7).
T1 construct: human programmed death ligand 1; HEK293 transient, Ni Sepharose and SEC; also called hPD-L1
T1 sequence (Q9NZQ7 19-290): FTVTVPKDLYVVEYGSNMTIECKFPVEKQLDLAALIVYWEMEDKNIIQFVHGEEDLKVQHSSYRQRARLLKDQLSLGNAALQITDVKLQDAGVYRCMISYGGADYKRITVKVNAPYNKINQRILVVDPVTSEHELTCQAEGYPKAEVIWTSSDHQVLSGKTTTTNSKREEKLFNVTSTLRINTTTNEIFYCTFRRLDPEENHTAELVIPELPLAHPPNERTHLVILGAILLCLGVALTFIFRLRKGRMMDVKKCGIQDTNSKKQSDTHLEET
Description: ELISA; indirect ELISA; MaxiSorp plates coated with protein overnight at 4 °C, blocked with 1% BSA in PBS, ligands diluted in PBS 1 h at RT, detection with anti-IgG Fc or anti-His-Tag antibody and HRP-streptavidin, TMB; the paper does not say for each pair which partner was coated. The settings on record: both partners purified. For orientation: In an ELISA, binding on a coated surface is turned into a signal by an enzyme label.
For the molecule B1, the binding result is listed as “binds”.
For B2, the binding result is reported as “binds”.
Take B3: the binding result is reported as “binds”.
